From IntAct's records for PubMed 16469698 come the findings set out here.

This assay has as its target mfd_ecoli mfd (UniProt P30958).

Turning to “DNA-directed RNA polymerase subunit beta (Escherichia coli (strain K12)) (from UniProt P0A8V2) E119A”, the “effect of a mutation on the interaction” value is recorded as “decreasing interaction”.
